In article PMC11284791, “Ribosome External Electric Field Regulates Metabolic Enzyme Activity: The RAMBO Effect” (The Journal of Physical Chemistry. B, 2024):

Molecular target: the molecule itself
Experiment: cross-linking; His-TPI alone with 2 mM BS(PEG)5; 10 mM sodium phosphate pH 7.5, 100 mM NaCl, 10 mM MgCl2, RT, 30 min; SDS-PAGE

B1: C-terminal His-tagged triosephosphate isomerase from G. gallus (enzyme, UniProt P00940 1-248, looked up)
chain: MAPRKFFVGGNWKMNGDKKSLGELIHTLNGAKLSADTEVVCGAPSIYLDFARQKLDAKIGVAAQNCYKVPKGAFTGEISPAMIKDIGAAWVILGHSERRHVFGESDELIGQKVAHALAEGLGVIACIGEKLDEREAGITEKVVFEQTKAIADNVKDWSKVVLAYEPVWAIGTGKTATPQQAQEVHEKLRGWLKSHVSDAVAQSTRIIYGGSVTGGNCKELASQHDVDGFLVGGASLKPEFVDIINAKH
notes: Triosephosphate isomerase, G. gallus, 248 residues, as m1, with a C-terminal His tag; also called His-TPI; His-tagged TPI; source: E. coli BL21 (DE3), pET-21a(+)-His-TPI, purified (Ni-NTA); not shown: His tag, C-terminal, kept
- stoichiometry N: 2
